Laboratory results published in patent publication US20220119534A1 (DRAGONFLY THERAPEUTICS, published 2022).

Target: T1, mFc-hNKG2D (human, UniProt P26718 73-216)
T1 construct: extracellular domain; Made in house (Dragonfly Tx); the order of tag and ECD follows the name mFc-hNKG2D; also called mFc-tagged human NKG2D; not shown: mouse Fc tag
T1 sequence (looked up): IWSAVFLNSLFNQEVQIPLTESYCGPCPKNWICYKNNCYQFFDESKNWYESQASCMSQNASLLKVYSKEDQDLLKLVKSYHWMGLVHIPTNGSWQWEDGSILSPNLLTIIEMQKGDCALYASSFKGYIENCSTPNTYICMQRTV
Experiment: SPR Biacore 8K 37 C; mFc-hNKG2D captured on anti-mFc chip, TriNKET as analyte; kinetics fit; average of 4

Kd: 721 nM
B1: F3'-1602 TriNKET (bispecific antibody, human IgG1, kappa)
chain: QLQLQESGPGLVKPSETLSLTCTVSGFSLTNYGLHWIRQPPGKCLEWIGVIWSGGKTDYNPSLKSRVTISKDTSKNQFSLKLSSVQAADTAVYYCAKYDYDDSLDYWGQGTLVTVSSGGGGSGGGGSGGGGSGGGGSDIQMTQSPSSLSASVGDRVTITCHASQNINFWLSWYQQKPGKAPKLLIYEASNLHTGVPSRFSGSGSGTRFTLTISSLQPEDIATYYCQQSHSYPLTFGCGTKLEIKGSDKTHTCPPCPAPELLGGPSVFLFPPKPKDTLMISRTPEVTCVVVDVSHEDPEVKFNWYVDGVEVHNAKTKPREEQYNSTYRVVSVLTVLHQDWLNGKEYKCKVSNKALPAPIEKTISKAKGQPREPRVYTLPPCRDELTKNQVSLTCLVKGFYPSDIAVEWESNGQPENNYKTTPPVLVSDGSFTLYSKLTVDKSRWQQGNVFSCSVMHEALHNHYTQKSLSLSPG
heavy: EVQLVESGGGLVKPGGSLRLSCAASGFTFSSYSMNWVRQAPGKGLEWVSSISSSSSYIYYADSVKGRFTISRDNAKNSLYLQMNSLRAEDTAVYYCARGAPIGAAAGWFDPWGQGTLVTVSSASTKGPSVFPLAPSSKSTSGGTAALGCLVKDYFPEPVTVSWNSGALTSGVHTFPAVLQSSGLYSLSSVVTVPSSSLGTQTYICNVNHKPSNTKVDKKVEPKSCDKTHTCPPCPAPELLGGPSVFLFPPKPKDTLMISRTPEVTCVVVDVSHEDPEVKFNWYVDGVEVHNAKTKPREEQYNSTYRVVSVLTVLHQDWLNGKEYKCKVSNKALPAPIEKTISKAKGQPREPQVCTLPPSRDELTENQVSLTCLVKGFYPSDIAVEWESNGQPENNYKTTPPVLDSDGSFFLYSWLTVDKSRWQQGNVFSCSVMHEALHNHYTQKSLSLSPG
light: DIQMTQSPSSVSASVGDRVTITCRASQGISSWLAWYQQKPGKAPKLLIYAASSLQSGVPSRFSGSGSGTDFTLTISSLQPEDFATYYCQQGVSFPRTFGGGTKVEIKRTVAAPSVFIFPPSDEQLKSGTASVVCLLNNFYPREAKVQWKVDNALQSGNSQESVTEQDSKDSTYSLSSTLTLSKADYEKHKVYACEVTHQGLSSPVTKSFNRGEC
notes: Trispecific F3' format: CLEC12A scFv-Fc paired with NKG2D Fab-Fc; Stressed and control samples of the stability studies are the same molecule; also called AB0237
